From US20250043302A1, “MUTATED HYDROXYPHENYLPYRUVATE DIOXYGENASE POLYPEPTIDE, AND CODING GENE AND USE THEREOF” (BEIJING DABEINONG BIOTECHNOLOGY CO., LTD., priority 2021, published 2025)

Columns and labels:
Format in all cases: in vivo
[1] = test system: Arabidopsis thaliana T1 plants; experiment: Topramezone tolerance of transgenic Arabidopsis thaliana T1 plants (spray, bleached leaf area grade, damage score); settings: 7 DAT, Table 4; for Classification and statistics of the grade of pesticide damage: Grade 0 / Classification and statistics of the grade of pesticide damage: Grade 1 / Classification and statistics of the grade of pesticide damage: Grade 2 / Classification and statistics of the grade of pesticide damage: Grade 3: number of plants; for Scores: pesticide damage score 0-100
How it was run: (§1)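 Damage was assessed by bleaching grade (0 none; 1 <50%; 2 >50%; 3 100% of leaf area) one week after spraying. Sprays on 18-day-old T1 and wild-type plants used field-rate multiples: topramezone 25–200, isoxaflutole 35–280, mesotrione 52.5–420 g ai/ha.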

[2] = test system: Arabidopsis thaliana T1 plants; experiment: Isoxaflutole tolerance of transgenic Arabidopsis thaliana T1 plants (spray, bleached leaf area grade, damage score); design: Scores (pesticide damage): scale not given here; settings: spray, Arabidopsis thaliana T1 plants; for Classification and statistics of the grade of pesticide damage: Grade 0 (number of plants) / Classification and statistics of the grade of pesticide damage: Grade 1 (number of plants) / Classification and statistics of the grade of pesticide damage: Grade 2 (number of plants) / Classification and statistics of the grade of pesticide damage: Grade 3 (number of plants): 16 plants
How it was run: as §1

[3] = test system: Arabidopsis thaliana T1 plants; experiment: Mesotrione tolerance of transgenic Arabidopsis thaliana T1 plants (spray, bleached leaf area grade, damage score); design: Scores: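 damage score 0-100 computed as Σ(N×S)/(T×M)×100 over grades 0-3 with higher meaning more damage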; settings: Arabidopsis thaliana T1 plants; for Grade 0 (classification and statistics of the grade of pesticide damage; number of plants) / Grade 1 (classification and statistics of the grade of pesticide damage; number of plants) / Grade 2 (classification and statistics of the grade of pesticide damage; number of plants) / Grade 3 (classification and statistics of the grade of pesticide damage; number of plants): 16 plants
How it was run: as §1

[4] = isoxaflutole 35 g ai/ha (0.5x field concentration)
[5] = isoxaflutole 70 g ai/ha (1x field concentration)

B1: GmHPPDm-F372A-F383W-02: nucleotide sequence encoding Glycine max HPPD with F372A+F383W; vector DBN11749 (nucleic acid)
DNA: ATGCCAATGTACACACCATCGCTCTCCGCCCCTTCTTCCAACCATATTCAGCCATCCGTGACTCTGCCTCTCTACATCACAACCACCAAGTTGAACCTGAAGCAGCAGCACCATACGACTCCTATGCCTATACCCATGTGCAATGAGATCCAAGCACAGGCTCAGGCACAAGCTCAACCCGGATTCAAACTCGTGGGATTCAAGAACTTCGTCCGTACCAATCCAAAATCTGACCGCTTCCAGGTGAACAGATTCCACCACATAGAGTTTTGGTGTACTGATGCAACGAATGCTTCGAGGAGGTTTTCATGGGGCTTAGGCATGCCGATTGTAGCAAAGTCAGACCTTTCTACAGGGAACCAAATTCATGCAAGCTATCTGCTCCGCTCAGGTGATTTGTCTTTCTTGTTCTCAGCTCCATATTCTCCATCATTATCTGCTGGGTCATCAGCAGCATCTAGTGCGTCGATCCCTAGCTTTGATGCCGCCACCTGCCTCGCCTTCGCCGCCAAACATGGATTTGGTGTTCGCGCCATTGCTCTTGAGGTTGCCGATGCCGAGGCTGCTTTTAGCGCCTCCGTCGCCAAGGGAGCTGAGCCTGCGTCACCTCCTGTTCTTGTTGATGATCGAACTGGTTTTGCTGAAGTGCGTCTTTACGGCGACGTGGTGCTCAGATATGTTAGTTACAAGGATGCTGCTCCTCAAGCGCCGCACGCTGATCCTTCAAGATGGTTTCTTCCGGGGTTTGAGGCCGCTGCTAGTTCATCTTCCTTCCCGGAGTTGGATTACGGCATACGGCGGCTTGACCATGCTGTCGGCAATGTTCCTGAGCTTGCTCCGGCGGTACGGTACTTGAAAGGTTTCTCCGGGTTCCATGAATTTGCAGAGTTCACGGCGGAAGATGTTGGAACAAGTGAAAGCGGATTGAATTCTGTTGTTTTGGCCAACAACAGTGAAACTGTTCTGCTCCCCCTCAATGAACCAGTTTATGGCACAAAGCGCAAGAGCCAGATTGAAACATATCTCGAGCACAATGAAGGCGCCGGCGTCCAGCATCTTGCTTTGGTGACTCATGATATCTTCACAACACTTAGGGAGATGAGGAAGAGGAGTTTCCTCGGCGGGTTTGAATTCATGCCCAGTCCCCCGCCGACCTACTATGCAAATCTGCACAACAGGGCTGCAGATGTGCTGACTGTAGACCAGATCAAGCAATGTGAAGAACTTGGAATTTTAGTGGATAGAGACGACCAAGGTACACTACTTCAAATAGCCACCAAACCAGTCGGTGACAGACCAACAATTTGGATCGAGATTATACAAAGAATTGGATGCATGGTCGAGGATGAAGAAGGGAAGGTGTACCAGAAGGGAGCATGTGGTGGTTTTGGGAAAGGAAATTTTTCTGAGCTGTTTAAATCCATCGAGGAATATGAGAAAACCTTAGAAGCTAAAAGAACTGCATGA
modifications: GmHPPDm-F372A-F383W-02 Nucleotide Sequence
notes: vector DBN11749
Question: What does the source list for B1?
Answer: Classification and statistics of the grade of pesticide damage: Grade 0 ([1]; topramezone 25 g ai/ha (1×)): 9; Classification and statistics of the grade of pesticide damage: Grade 1 ([1]; topramezone 25 g ai/ha (1×)): 7; Classification and statistics of the grade of pesticide damage: Grade 2 ([1]; topramezone 25 g ai/ha (1×)): 0; Classification and statistics of the grade of pesticide damage: Grade 3 ([1]; topramezone 25 g ai/ha (1×)): 0; Classification and statistics of the grade of pesticide damage: Grade 0 ([1]; topramezone 100 g ai/ha (4×)): 5; Classification and statistics of the grade of pesticide damage: Grade 1 ([1]; topramezone 100 g ai/ha (4×)): 6; Classification and statistics of the grade of pesticide damage: Grade 2 ([1]; topramezone 100 g ai/ha (4×)): 4; Classification and statistics of the grade of pesticide damage: Grade 3 ([1]; topramezone 100 g ai/ha (4×)): 1; Scores ([1]; topramezone 25 g ai/ha (1×)): 15; Scores ([1]; topramezone 100 g ai/ha (4×)): 35; Resistance evaluation ([1]; topramezone 25 g ai/ha (1×)): highly; Resistance evaluation ([1]; topramezone 100 g ai/ha (4×)): poorly; Resistance evaluation [2, 4]: Highly; Scores (pesticide damage) [2, 4]: 15; Classification and statistics of the grade of pesticide damage: Grade 0 (number of plants) [2, 4]: 9; Classification and statistics of the grade of pesticide damage: Grade 1 (number of plants) [2, 4]: 7; Classification and statistics of the grade of pesticide damage: Grade 2 (number of plants) [2, 4]: 0; Classification and statistics of the grade of pesticide damage: Grade 3 (number of plants) [2, 4]: 0; Resistance evaluation [2, 5]: Poorly; Scores (pesticide damage) [2, 5]: 40; Classification and statistics of the grade of pesticide damage: Grade 0 (number of plants) [2, 5]: 4; Classification and statistics of the grade of pesticide damage: Grade 1 (number of plants) [2, 5]: 6; Classification and statistics of the grade of pesticide damage: Grade 2 (number of plants) [2, 5]: 5; Classification and statistics of the grade of pesticide damage: Grade 3 (number of plants) [2, 5]: 1; Resistance evaluation ([3]; mesotrione 52.5 g ai/ha): Moderately; Scores ([3]; mesotrione 52.5 g ai/ha): 23; Grade 0 (classification and statistics of the grade of pesticide damage; number of plants) ([3]; mesotrione 52.5 g ai/ha): 6; Grade 1 (classification and statistics of the grade of pesticide damage; number of plants) ([3]; mesotrione 52.5 g ai/ha): 9; Grade 2 (classification and statistics of the grade of pesticide damage; number of plants) ([3]; mesotrione 52.5 g ai/ha): 1; Grade 3 (classification and statistics of the grade of pesticide damage; number of plants) ([3]; mesotrione 52.5 g ai/ha): 0; Resistance evaluation ([3]; mesotrione 105 g ai/ha): Poorly resistant; Scores ([3]; mesotrione 105 g ai/ha): 46; Grade 0 (classification and statistics of the grade of pesticide damage; number of plants) ([3]; mesotrione 105 g ai/ha): 2; Grade 1 (classification and statistics of the grade of pesticide damage; number of plants) ([3]; mesotrione 105 g ai/ha): 7; Grade 2 (classification and statistics of the grade of pesticide damage; number of plants) ([3]; mesotrione 105 g ai/ha): 6; Grade 3 (classification and statistics of the grade of pesticide damage; number of plants) ([3]; mesotrione 105 g ai/ha): 1
